Columns and labels:
OTUB1 (C91S) = OTUB1 (C91S) (human (by the printed UniProt accession), UniProt Q96FW1 1-271, C91S); experiment: ITC
OTUB1 wild-type = OTUB1 wild-type (human (by the printed UniProt accession), UniProt Q96FW1 1-271); experiment: ITC
Chain of OTUB1 wild-type (Q96FW1 whole entry): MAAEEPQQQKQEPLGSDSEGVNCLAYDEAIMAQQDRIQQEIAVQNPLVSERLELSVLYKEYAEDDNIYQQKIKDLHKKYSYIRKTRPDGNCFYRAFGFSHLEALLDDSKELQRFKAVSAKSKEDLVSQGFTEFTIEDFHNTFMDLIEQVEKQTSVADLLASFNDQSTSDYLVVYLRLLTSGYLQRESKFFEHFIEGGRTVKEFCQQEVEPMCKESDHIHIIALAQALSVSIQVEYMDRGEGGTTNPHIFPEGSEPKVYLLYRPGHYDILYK

Chain of OTUB1 (C91S) (Q96FW1 whole entry C91S): as the sequence (Q96FW1 whole entry) above, with C91S counted along it

| Binder | binding result (OTUB1 (C91S)) | binding result (OTUB1 wild-type) | Kd (OTUB1 (C91S)) [µM] |
| --- | --- | --- | --- |
| UBE2D1 (enzyme) not shown | binds | binds |  |
| UBE2E1 (enzyme, human, UniProt P51965 1-193, looked up) MSDDDSRASTSSSSSSSSNQQTEKETNTPKKKESKVSMSKNSKLLSTSAKRIQKELADITLDPPPNCSAGPKGDNIYEWRSTILGPPGSVYEGGVFFLDITFTPEYPFKPPKVTFRTRIYHCNINSQGVICLDILKDNWSPALTISKVLLSICSLLTDCNPADPLVGSIATQYMTNRAEHDRMARQWTKRYAT | binds |  |  |
| UBE2N (enzyme, human, UniProt P61088 1-152, looked up) MAGLPRRIIKETQRLLAEPVPGIKAEPDESNARYFHVVIAGPQDSPFEGGTFKLELFLPEEYPMAAPKVRFMTKIYHPNVDKLGRICLDILKDKWSPALQIRTVLLSIQALLSAPNPDDPLANDVAEQWKTNEAQAIETARAWTRLYAMNNI |  |  | 8.1 |

Reference: PMC7761795 (Biochemistry, 2020)
